Measurements: publication PMC10284691, “A tripartite rheostat controls self-regulated host plant resistance to insects” (Nature, 2023)

Experiments:
[1] = molecular target: T1, BISP (purified from insect cells) (Nilaparvata lugens (brown planthopper)); test: BLI; Octet RED96; biotinylated LRR or N14–LRR (20 μg/ml) on streptavidin biosensors, BISP, BISP(26–124) or BISP(125–241) in solution at different concentrations; PBS pH 7.4 with 0.05% Tween 20 and 0.5% BSA; 25 °C; association 180 s, dissociation 180 s; global fit; settings: both partners purified
T1 construct: probably this one too; source: SF9 insect cells (baculovirus), purified (Ni-NTA, dialysed in PBS)

[2] = molecular target: T2, BISP(26–124) (purified from insect cells) (Nilaparvata lugens (brown planthopper)); test: as above; settings: both partners purified
T2 construct: source: SF9 insect cells (baculovirus), purified (Ni-NTA, dialysed in PBS)

B1: BPH14–LRR (purified from insect cells) (domain or fragment)
chain: SGDRPEAIRTPSPEKGYPGIQTLICSRFKYLQNVSKYRSLRVLTTMWEGSFLIPKYHHHLRYLDLSESEIKALPEDISILYHLQTLNLSRCLSLRRLPKGMKYMTALRHLYTHGCWSLGSMPPDLGHLTCLQTLTCFVAGTCSGCSDLGELRQLDLGGRLELRKLENVTKADAKAANLGKKEKLTKLTLIWTDQEYKEAQSNNHKEVLEGLTPHEGLKVLSIYHCGSSTCPTWMNKLRDMVGLELNGCKNLEKLPPLWQLPALQVLCLEGLGSLNCLFNCDTHTPFTFCRLKELTLSDMTNFETWWDTNEVQGEELMFPEVEKLSIESCHRLTALPKASNAISESSGEVSTVCRSAFPALKEMKLYDLRIFQKWEAVDGTPREEATFPQLDKLEIRQCPELTTLPEAPKLSDLEISKGNQQISLQAASRHITSLSSLVLHLSTDDTETASVAKQQDSSDLVIEDEKWSHKSPLELMVLSRCNLLFSHPSALALWTCFAQLLDLKIRYVDALVSWPEEVFQGLVSLRKLEISVCENLTGHTQARGQSTPAPSELLPRLESLEITCCDSIVEVPNLPASLKLLEIRGCPGLESIVFNQQQDRTMLVSAESFAEQDKSSLISGSTSETNDHVLPRLESLVINWCDRLEVLHLPPSIKKLGIYSCEKLRSLSVKLDAVRELSIRHCGSLKSLESCLGELASLQQLKLFDCKSLESLPKGPQAYSSLTSLEIRGCSGIKVLPPSLQQRLDDIEDKELDACYEEAEAEPKSRHRQSAISRLMCLK
modifications: biotin (NHS-biotin) in the BLI assays; RED-NHS 2nd Generation dye in the MST assays
Kd [1]: 32.1 nM
Kd [2]: 127 nM
